Legend:
[1] = target: Glucose-6-phosphate dehydrogenase E347A, tetramer-impaired synthetic mutant (human) (UniProt P11413); assay: native gel or EMSA; partial native PAGE (P-Native PAGE): 850 nM protein in 50 mM Tris pH 7.4, 150 mM NaCl, 23 °C, 30 min; sample buffer without SDS and BME, not boiled, run on SDS-PAGE, Western blot, quantified with Fiji; step: dimer to monomers
[2] = target: Glucose-6-phosphate dehydrogenase K403Q (human) (UniProt P11413); assay: SEC; analytical SEC, Superdex 75 10/300 GL, 0.4 ml/min; 500 nM G6PD incubated 30 min at 23 °C in 80 mM sodium phosphate pH 8.0, with or without 10 μM NADP+; percentages in monomer equivalents; step: monomers to dimer

percent in monomeric form [1] [%]	percent dimer [2] [%]	Substance
80	–	Glucose-6-phosphate dehydrogenase E347A, tetramer-impaired synthetic mutant (from UniProt P11413 1-515) (enzyme)
–	74	Glucose-6-phosphate dehydrogenase K403Q (from UniProt P11413 1-515) (enzyme)

Reference: article PMC8861134
